According to patent US20220403001A1, “PDE5 DERIVED REGULATORY CONSTRUCTS AND METHODS OF USE IN IMMUNOTHERAPY” (Obsidian Therapeutics, Inc., priority 2018, published 2022):

Key:
hPDE5 mutants [1] = biological target: T1, hPDE5 mutants (Homo sapiens, UniProt O76074); assay: GFP FACS analysis of hPDE5 mutant library clones in NIH3T3 cell pools; conditions: experiment 1; for Stabilization ratio: GFP intensity 10 μM vardenafil vs DMSO; for Destabilizing mutation co-efficient: GFP intensity mutant vs PDE5 wildtype construct in absence of ligand; for MFI 10 μM VDF / MFI DMSO: GFP, NIH3T3 cell pools; for MFI 10 μM VDF: 10 μM vardenafil 24 hr; for MFI DMSO: no ligand (DMSO)
Method: These constructs were packaged into lentivirus, transduced into NIH3T3 cells and select stable cell pools were derived as described below. […] Lentiviral stocks were used for transduction of NIH3T3 cells and subsequent cell pool selection. The day before transduction, NIH3T3 cells (1.8×10^6) were seeded in a T-25 flask and allowed to reach 60-70% confluency (˜1 day). The growth medium in the T-25 flask was then replaced with 1 mL virus (quickly thawed in a 37° C. water bath) and 5 μg/mL polybrene. […] Transduction medium was removed the following day and replaced with 5 mL fresh medium. At 48 hr after transduction, the medium was replaced with media containing 1 μg/mL puromycin. This puromycin medium was replaced every 3-4 days until cell pools were established (˜2 weeks).
The mean fluorescence intensity (MFI) of GFP at 100 μM concentration treatment was set as 100% hPDE5 stabilization effect (HPE), while DMSO treatment was set as 0% effect (ZPE) of hPDE5 stabilization. The effect of the compound on hPDE5 stabilization was calculated based on the following formula: % PDE5 stabilization effect=(MFI-ZPE)/(HPE-ZPE)×100.
Plots of the % effect versus concentration were generated with Graphpad Prism 5 and EC50 values were calculated using a four-parameter nonlinear regression model.
Select PDE5 clones from both experiment 1 and experiment 2 were directly compared. […] The stabilization ratio was calculated as the fold change in GFP intensity in ligand treated samples compared to treatment with DMSO (i.e. in the absence of ligand) with the same construct.

hPDE5 mutants [2] = biological target: T1, hPDE5 mutants; assay: GFP MFI by FACS in HCT116 cells transduced with hPDE5 constructs; assay type: cell-based
Method: (§1) Desirable qualities of a DD include, low expression of the SRE in the absence of ligand and ligand dependent stabilization of the SRE. Constructs were generated using DDs linked to GFP using an SG linker. […] The mean fluorescence intensity (MFI) of GFP was analyzed by FACS. […] Destabilizing mutation coefficient less than 1 are desirable.
(§2) Mean fluorescence intensity (MFI) was measured by FACS. […] Destabilizing mutation coefficient ratios less than 1 are desirable.
(§3) Mean fluorescence intensity (MFI) was measured by FACS. […] Destabilizing mutation co-efficient ratios less than 1 are desirable.
(§4) Mean fluorescence intensity (MFI) was measured by FACS. […] Destabilizing mutation coefficient less than 1 are desirable.
as §4
(§5) Mean fluorescence intensity (MFI) of GFP was measured by FACS.
(§6) Mean fluorescence intensity (MFI) was measured by FACS.
(§7) The media containing the ligand was removed and fresh media without the ligand was added.
(§8) The properties of the DDs were analyzed in the presence and absence of ligands via FACS as previously described.
(§9) GFP fluorescence was measured by FACS.
(§10) The properties of the DDs were analyzed via FACS both in the presence and absence of ligands.
as §9

hPDE5 mutants [3] = assay: as above; assay type: cell-based, human
Method: as §1, §2, §3, §4, §4, §5, §6, §7, §8, §9, §10, §9

[4] = Off-kinetics, time 50 hrs (ligand removed at 48 h)
[5] = Off-kinetics, time 52 hrs (ligand removed at 48 h)
[6] = Off-kinetics, time 54 hrs (ligand removed at 48 h)
[7] = Off-kinetics, time 56 hrs (ligand removed at 48 h)
[8] = Off-kinetics, time 60 hrs (ligand removed at 48 h)
[9] = Off-kinetics, time 72 hrs (ligand removed at 48 h)
[10] = Off-kinetics, time 80 hrs (ligand removed at 48 h)
[11] = Off-kinetics, time 96 hrs (ligand removed at 48 h)

LibC000016: hPDE5 (Amino acid 535-860 of WT, Q743L), DD generated by random mutagenesis
Stabilization ratio (hPDE5 mutants [1]): 2.4 | Destabilizing mutation co-efficient (hPDE5 mutants [1]): 0.51 | MFI 10 μM VDF (hPDE5 mutants [1]): 6869 | MFI DMSO (hPDE5 mutants [1]): 2895

LibC000017: hPDE5 (Amino acid 535-860 of WT, Y709H, F787V), DD generated by random mutagenesis
Stabilization ratio (hPDE5 mutants [1]): 2.9 | Destabilizing mutation co-efficient (hPDE5 mutants [1]): 0.39 | MFI 10 μM VDF (hPDE5 mutants [1]): 6530 | MFI DMSO (hPDE5 mutants [1]): 2244

LibC000018: hPDE5 (Amino acid 535-860 of WT, N605Y, I715K), DD generated by random mutagenesis
Stabilization ratio (hPDE5 mutants [1]): 3.0 | Destabilizing mutation co-efficient (hPDE5 mutants [1]): 0.18 | MFI 10 μM VDF (hPDE5 mutants [1]): 3102 | MFI DMSO (hPDE5 mutants [1]): 1038

LibC000019: hPDE5 (Amino acid 535-860 of WT, F564I, N662Y, H685L, L693P, F736I), DD generated by random mutagenesis
Stabilization ratio (hPDE5 mutants [1]): 0.9 | Destabilizing mutation co-efficient (hPDE5 mutants [1]): 0.06 | MFI 10 μM VDF (hPDE5 mutants [1]): 285 | MFI DMSO (hPDE5 mutants [1]): 320

LibC000021: hPDE5 (Amino acid 535-860 of WT, V594I), DD generated by random mutagenesis
Stabilization ratio (hPDE5 mutants [1]): 2.6 | Destabilizing mutation co-efficient (hPDE5 mutants [1]): 0.30 | MFI 10 μM VDF (hPDE5 mutants [1]): 4440 | MFI DMSO (hPDE5 mutants [1]): 1732

LibC000023: hPDE5 (Amino acid 535-860 of WT, E858V), DD generated by random mutagenesis
Stabilization ratio (hPDE5 mutants [1]): 1.4 | Destabilizing mutation co-efficient (hPDE5 mutants [1]): 0.77 | MFI 10 μM VDF (hPDE5 mutants [1]): 6121 | MFI DMSO (hPDE5 mutants [1]): 4386

LibC000024: hPDE5 (Amino acid 535-860 of WT, T784I), DD generated by random mutagenesis
Stabilization ratio (hPDE5 mutants [1]): 1.4 | Destabilizing mutation co-efficient (hPDE5 mutants [1]): 0.88 | MFI 10 μM VDF (hPDE5 mutants [1]): 6905 | MFI DMSO (hPDE5 mutants [1]): 5039

OT-001186: hPDE5 R732G AcGFP construct
GFP by FACS, Sildenafil 10 μM (hPDE5 mutants [2]; hotspot constructs, HCT116): 288 | GFP by FACS, Vardenafil 1 μM (hPDE5 mutants [2]; hotspot constructs, HCT116): 854 | GFP by FACS, Sildenafil 0 μM (DMSO) (hPDE5 mutants [3]; hotspot constructs, HCT116, DMSO control of Sildenafil): 298 | GFP by FACS, Vardenafil 0 μM (DMSO) (hPDE5 mutants [3]; hotspot constructs, HCT116, DMSO control of Vardenafil): 176

OT-001216: hPDE5 wildtype construct linked to GFP
Sildenafil Stabilization ratio (hPDE5 mutants [2]; 10 μM, 48 h, HCT-116): 1.03 | Vardenafil Stabilization ratio (hPDE5 mutants [2]; 10 μM, 48 h, HCT-116): 1.04 | MFI Sildenafil (hPDE5 mutants [2]; GFP, 10 μM Sildenafil 48 h, HCT-116): 66860 | MFI Vardenafil (hPDE5 mutants [2]; GFP, 10 μM Vardenafil 48 h, HCT-116): 67388 | MFI DMSO (hPDE5 mutants [3]; GFP, DMSO 48 h, HCT-116): 64942 | Stabilization ratio (hPDE5 mutants [3]; Off-kinetics, time 48 hrs (after 48 h ligand treatment)): 2.24 | MFI (hPDE5 mutants [3]; Off-kinetics, time 48 hrs (after 48 h ligand treatment), HCT 116): 102137 | MFI (hPDE5 mutants [3]; [4]): 97225 | Stabilization ratio (hPDE5 mutants [3]; [4]): 2.14 | MFI (hPDE5 mutants [3]; [5]): 96264 | Stabilization ratio (hPDE5 mutants [3]; [5]): 2.12 | MFI (hPDE5 mutants [3]; [6]): 95410 | Stabilization ratio (hPDE5 mutants [3]; [6]): 2.10 | MFI (hPDE5 mutants [3]; [7]): 81733 | Stabilization ratio (hPDE5 mutants [3]; [7]): 1.80 | MFI (hPDE5 mutants [3]; [8]): 84323 | Stabilization ratio (hPDE5 mutants [3]; [8]): 1.85 | MFI (hPDE5 mutants [3]; [9]): 70151 | Stabilization ratio (hPDE5 mutants [3]; [9]): 1.54 | MFI (hPDE5 mutants [3]; [10]): 63208 | Stabilization ratio (hPDE5 mutants [3]; [10]): 1.39 | MFI (hPDE5 mutants [3]; [11]): 55918 | Stabilization ratio (hPDE5 mutants [3]; [11]): 1.23 | MFI (hPDE5 mutants [3]; Sildenafil 30 μM, 24 h, HCT116): 75478 | Stabilization ratio (hPDE5 mutants [3]; Sildenafil 30 μM, 24 h, HCT116): 1.22 | MFI (hPDE5 mutants [3]; Tadalafil 100 μM, 24 h, HCT116): 58468 | Stabilization ratio (hPDE5 mutants [3]; Tadalafil 100 μM, 24 h, HCT116): 1.60 | MFI (hPDE5 mutants [3]; Vardenafil 30 μM, 24 h, HCT116): 70898 | Stabilization ratio (hPDE5 mutants [3]; Vardenafil 30 μM, 24 h, HCT116): 1.14
